The target of this assay is fluorescently labeled non-covalent analog of peptide 5 (UniProt P46937). As to the kind of experiment: fluorescence polarisation.
UniProt P46937, sequence (P46937 whole entry, looked up, tested part not stated): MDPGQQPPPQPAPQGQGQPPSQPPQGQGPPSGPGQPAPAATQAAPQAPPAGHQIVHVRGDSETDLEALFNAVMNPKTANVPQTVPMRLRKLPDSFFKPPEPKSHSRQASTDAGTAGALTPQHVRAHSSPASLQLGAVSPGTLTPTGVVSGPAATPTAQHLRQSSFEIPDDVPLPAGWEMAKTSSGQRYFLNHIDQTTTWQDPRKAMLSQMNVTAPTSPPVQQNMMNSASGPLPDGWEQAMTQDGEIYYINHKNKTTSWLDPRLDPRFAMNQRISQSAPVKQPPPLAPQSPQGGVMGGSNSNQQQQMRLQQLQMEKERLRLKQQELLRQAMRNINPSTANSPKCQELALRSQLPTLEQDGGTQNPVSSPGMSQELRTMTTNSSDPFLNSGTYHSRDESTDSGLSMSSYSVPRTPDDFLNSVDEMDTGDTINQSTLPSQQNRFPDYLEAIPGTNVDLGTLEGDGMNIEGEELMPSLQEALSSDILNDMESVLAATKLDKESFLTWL

“14-3-3σ full length (1-248) (natural protein)”: the Kd was 106 nM.

The record behind these values is publication doi:10.1101/2021.05.06.441297.
